Patent US20250011363A1 (published 2025)

What follows are binders tested against acetylcholine receptor on acetylcholine receptor-overexpressing TE671 cells (assay: cell-based or functional assay).

| Binder | inhibition of acetylcholine receptors (calcium imaging with Fura-2-AM, TE671 cells, nicotine 400 uM) |
| --- | --- |
| RRQRR [5mer-73] | 10 µM |
| RSYSR [5mer-311] | 10 µM |
| RKRIRR [6mer-1-43] | 10 µM |
| RRGVRR [6mer-1-210] | 10 µM |
| RWRYKR [6mer-2-136] | 10 µM |
| KWRQKR [6mer-2-233] | 10 µM |
